{
  "source": "patent US20180236024A1",
  "about": "(STC UNM, published 2018)",
  "binders": {"B1": {"name": "IRGM (human IRGM, isoform d) (other, UniProt A1A4Y4-4 1-202, looked up)", "chain": "MEAMNVEKASADGNLPEVISNIKETLKIVSRTPVNITMAGDSGNGMSTFISALRNTGHEGKASPPTELVKATQRCASYFSSHFSNVVLWDLPGTGSATTTLENYLMEMQFNRYDFIMVASAQFSMNHVMLAKTAEDMGKKFYIVWTKLDMDLSTGALPEVQLLQIRENVLENLQKERLACHEKYLKSTPENSTRPRNINLCS", "notes": "Stood in cell lysates as GFP-, Flag- or V5-tagged protein or as the endogenous protein, depending on the experiment; Isoform d is said to be used in all experiments; also called GFP-IRGM; GFP-IRGMd"}},
  "key": {"TLR4": {"target": "T1, TLR4 (UniProt O00206 24-839, limits assumed)", "T1 construct": "also called GFP-TLR4; YFP-TLR4 (Addgene Plasmid 13018)", "T1 sequence (O00206 24-839 limits assumed)": "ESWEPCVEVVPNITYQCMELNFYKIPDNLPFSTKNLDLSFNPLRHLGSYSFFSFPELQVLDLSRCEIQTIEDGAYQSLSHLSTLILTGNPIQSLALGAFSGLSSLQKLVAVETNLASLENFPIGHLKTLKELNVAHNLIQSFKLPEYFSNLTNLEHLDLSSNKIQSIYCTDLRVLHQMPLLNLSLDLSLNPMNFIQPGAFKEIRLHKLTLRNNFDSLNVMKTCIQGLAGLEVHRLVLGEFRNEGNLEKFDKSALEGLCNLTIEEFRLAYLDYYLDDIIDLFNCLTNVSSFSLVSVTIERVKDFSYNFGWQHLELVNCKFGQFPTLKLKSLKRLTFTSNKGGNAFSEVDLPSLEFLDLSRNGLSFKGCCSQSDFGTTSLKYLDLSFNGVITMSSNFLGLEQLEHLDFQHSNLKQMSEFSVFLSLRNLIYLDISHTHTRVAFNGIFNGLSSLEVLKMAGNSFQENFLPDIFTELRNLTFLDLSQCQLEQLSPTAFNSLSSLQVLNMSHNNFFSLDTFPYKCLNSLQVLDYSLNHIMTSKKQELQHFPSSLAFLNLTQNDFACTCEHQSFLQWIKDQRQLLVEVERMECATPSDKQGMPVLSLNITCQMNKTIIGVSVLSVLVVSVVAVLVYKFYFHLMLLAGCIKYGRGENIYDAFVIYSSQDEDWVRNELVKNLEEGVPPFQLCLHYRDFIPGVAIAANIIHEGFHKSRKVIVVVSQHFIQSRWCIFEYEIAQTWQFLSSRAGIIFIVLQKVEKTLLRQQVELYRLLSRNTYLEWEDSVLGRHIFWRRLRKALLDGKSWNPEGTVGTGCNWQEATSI", "assay": "co-immunoprecipitation with anti-Flag (Flag-IRGM, tagged TLR4)"}, "TLR3": {"target": "T2, TLR3 (UniProt O15455 24-904, limits assumed)", "T2 construct": "also called Flag-TLR3 (Addgene Plasmid 13084)", "T2 sequence (looked up)": "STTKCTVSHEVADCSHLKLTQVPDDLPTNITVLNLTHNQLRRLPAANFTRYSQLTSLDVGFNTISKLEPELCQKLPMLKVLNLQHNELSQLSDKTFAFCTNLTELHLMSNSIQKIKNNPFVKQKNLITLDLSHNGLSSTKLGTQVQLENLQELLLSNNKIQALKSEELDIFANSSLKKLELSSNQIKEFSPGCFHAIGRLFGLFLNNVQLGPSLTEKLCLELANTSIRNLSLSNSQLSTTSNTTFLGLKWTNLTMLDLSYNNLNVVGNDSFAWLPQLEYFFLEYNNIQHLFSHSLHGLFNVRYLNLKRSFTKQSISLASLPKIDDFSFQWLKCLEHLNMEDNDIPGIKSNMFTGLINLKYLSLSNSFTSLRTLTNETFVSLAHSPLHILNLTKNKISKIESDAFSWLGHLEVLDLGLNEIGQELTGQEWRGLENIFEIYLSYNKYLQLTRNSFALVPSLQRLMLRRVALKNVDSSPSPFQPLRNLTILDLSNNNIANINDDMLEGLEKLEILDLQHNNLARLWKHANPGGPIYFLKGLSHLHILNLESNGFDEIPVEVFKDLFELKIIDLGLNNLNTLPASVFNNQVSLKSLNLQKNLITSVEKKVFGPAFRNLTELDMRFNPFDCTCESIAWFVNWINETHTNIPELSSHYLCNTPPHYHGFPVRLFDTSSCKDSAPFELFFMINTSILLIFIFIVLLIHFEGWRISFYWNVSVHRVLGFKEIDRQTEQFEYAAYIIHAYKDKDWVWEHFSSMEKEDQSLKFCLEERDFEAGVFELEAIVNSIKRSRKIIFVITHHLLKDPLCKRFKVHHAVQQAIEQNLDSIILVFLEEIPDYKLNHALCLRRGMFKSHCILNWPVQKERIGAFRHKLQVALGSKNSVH", "assay": "co-IP with anti-Flag, GFP-IRGM and Flag-TLR3"}, "NOD2 (full length)": {"target": "T3, NOD2 (full length) (UniProt Q9HC29 1-1040)", "T3 construct": "also called Flag-NOD2; endogenous NOD2", "T3 sequence (Q9HC29 whole entry)": "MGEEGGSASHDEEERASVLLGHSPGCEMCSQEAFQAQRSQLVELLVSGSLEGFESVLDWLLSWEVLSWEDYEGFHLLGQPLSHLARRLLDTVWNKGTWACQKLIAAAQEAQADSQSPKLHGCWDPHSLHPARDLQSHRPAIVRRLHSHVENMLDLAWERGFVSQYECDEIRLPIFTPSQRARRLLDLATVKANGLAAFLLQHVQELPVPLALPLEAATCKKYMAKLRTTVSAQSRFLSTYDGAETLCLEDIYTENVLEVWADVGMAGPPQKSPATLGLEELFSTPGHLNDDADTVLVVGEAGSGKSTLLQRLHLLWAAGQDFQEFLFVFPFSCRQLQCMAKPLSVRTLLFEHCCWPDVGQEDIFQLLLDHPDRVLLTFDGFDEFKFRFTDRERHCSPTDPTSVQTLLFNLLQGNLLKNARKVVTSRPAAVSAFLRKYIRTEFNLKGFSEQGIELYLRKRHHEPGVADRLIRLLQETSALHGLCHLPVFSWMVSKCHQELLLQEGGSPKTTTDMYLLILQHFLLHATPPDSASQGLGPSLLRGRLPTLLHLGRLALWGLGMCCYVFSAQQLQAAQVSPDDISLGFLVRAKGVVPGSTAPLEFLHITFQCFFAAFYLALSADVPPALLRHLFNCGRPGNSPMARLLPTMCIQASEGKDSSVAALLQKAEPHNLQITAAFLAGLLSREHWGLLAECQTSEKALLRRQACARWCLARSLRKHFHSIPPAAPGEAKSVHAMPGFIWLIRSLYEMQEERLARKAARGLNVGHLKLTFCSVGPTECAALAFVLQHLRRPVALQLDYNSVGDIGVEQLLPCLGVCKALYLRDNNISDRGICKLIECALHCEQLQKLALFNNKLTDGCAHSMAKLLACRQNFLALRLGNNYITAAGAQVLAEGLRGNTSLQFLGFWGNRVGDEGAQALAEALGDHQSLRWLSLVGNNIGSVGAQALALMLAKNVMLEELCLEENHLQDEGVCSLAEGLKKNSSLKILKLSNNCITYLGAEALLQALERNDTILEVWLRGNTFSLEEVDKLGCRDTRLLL", "assay": "co-IP, starved HT29 cells and HEK293T cells"}, "NOD1": {"target": "T4, NOD1 (UniProt Q9Y239 1-953)", "T4 construct": "also called Flag-NOD1", "T4 sequence (looked up)": "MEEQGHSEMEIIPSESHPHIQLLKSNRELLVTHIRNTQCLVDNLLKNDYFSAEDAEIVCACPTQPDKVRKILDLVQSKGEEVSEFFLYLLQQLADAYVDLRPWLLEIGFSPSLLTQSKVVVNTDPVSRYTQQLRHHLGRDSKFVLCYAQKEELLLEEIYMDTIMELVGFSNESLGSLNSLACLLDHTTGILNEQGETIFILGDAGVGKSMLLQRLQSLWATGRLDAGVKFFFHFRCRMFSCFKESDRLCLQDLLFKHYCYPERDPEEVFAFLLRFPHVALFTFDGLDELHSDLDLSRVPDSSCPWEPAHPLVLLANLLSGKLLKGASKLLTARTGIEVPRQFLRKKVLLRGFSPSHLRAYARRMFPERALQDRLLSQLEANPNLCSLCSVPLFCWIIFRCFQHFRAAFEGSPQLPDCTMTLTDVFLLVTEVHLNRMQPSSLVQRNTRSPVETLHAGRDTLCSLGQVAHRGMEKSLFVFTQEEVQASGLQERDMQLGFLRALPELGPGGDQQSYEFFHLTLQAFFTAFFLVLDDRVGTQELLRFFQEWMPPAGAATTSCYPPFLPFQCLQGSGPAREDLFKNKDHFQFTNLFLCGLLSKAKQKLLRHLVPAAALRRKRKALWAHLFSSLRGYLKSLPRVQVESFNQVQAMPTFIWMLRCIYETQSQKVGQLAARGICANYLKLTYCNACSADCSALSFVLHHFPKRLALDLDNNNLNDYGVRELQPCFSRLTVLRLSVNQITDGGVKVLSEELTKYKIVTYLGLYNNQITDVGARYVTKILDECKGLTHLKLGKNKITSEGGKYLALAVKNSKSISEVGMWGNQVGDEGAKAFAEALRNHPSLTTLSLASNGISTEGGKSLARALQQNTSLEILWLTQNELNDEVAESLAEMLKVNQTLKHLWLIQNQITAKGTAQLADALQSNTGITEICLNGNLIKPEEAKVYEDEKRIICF", "assay": "co-IP with anti-GFP, GFP-IRGM and Flag-NOD1"}},
  "data": [
    {"binder": "B1", "values": [
      {"measurement": "binding result", "setting": "TLR4", "result": "no binding"},
      {"measurement": "binding result", "setting": "TLR3", "result": "binds"},
      {"measurement": "binding result", "setting": "NOD2 (full length)", "result": "binds"},
      {"measurement": "binding result", "setting": "NOD1", "result": "binds"}
    ]}
  ]
}
